Laboratory results: patent US20220195015A1 (published 2022)

Biological target: SARS-CoV-2 spike receptor binding domain (RBD), wild type (SARS-CoV-2, UniProt P0DTC2 319-539)
Test: ELISA, RBD protein coated, mAb titrated

Binder	EC50 [ng/mL]
C572 (antibody, V domains shown) VH: EVQLVESGGGLIKPGRSLRLSCTASGFTFGDYAMTWFRQAPGKGLEWVGFIRSKAYGGTTGYAASVKYRFTISRDDSKSIAYLQMDSLKTEDTAVYYCTRWDGWSQHDYWGQGTLVTVSS VL: DIVMTQSPLSLSVTPGEPASISCRSSQSLLHSNGNNYFDWYLQKPGQSPQLLIYLASNRASGVPDRFSGSGSGTDFTLKISRVEAEDVGVYYCMQVLQIPYTFGQGTKLEI	2.9
C574 (antibody, V domains shown) VH: QVQLVQSGAEVKKPGASVKVSCKASGYTFTSYGFSWVRQAPGQGLEWLGWISAYNGNTNYAQKLQGRVTMTTDTSTSTAYMELRSLRSDDTAVYYCARAIAVAGTSGEFDYWGQGTLVTVSS VL: not shown	8.12
C573 (antibody, V domains shown) VH: QVQLQESGPGLVKPSGTLSLTCAVSGGSISTVNWWSWVRQPPGKGLEWIGEIHHSGNTNHNPSLRSRVTISVDKSKNQFSLKLRSVTAADTAVYYCARDGGRPGDAFDLWGQGTMVTVSS VL: QSALTQPASVSGSPGQSITISCTGTSSDVGGYNYVSWYQQHPGKVPKVMIYDVSNRPSGISNRFSGSKSGNTASLTISGLQAEDEADYYCNSYRSNSTRVFGTGTKVTV	2.2
C530 (antibody, V domains shown) VH: QVQLVESGGGVAQPGRSLRLSCAASGFTFSRYGMHWVRQAPGKGLEWVAVIWHDGSDKYCADFVKGRFTISRDNSKNTLYMQMDSLRAEDTAVYYCARGGRPDHETGIAVLGEYYFDSWGQGTLVTVSS VL: SYELTQPPSVSVSPGQTARITCSGDAFPLQYGYWYQQKPGQAPVLVIYKDKERPSGISERFSGSSSGTTVTLTISGVQAEDEADYYCQSADTNGVVFGGGTSLTVL	10.5
C529 (antibody, V domains shown) VH: EVQLLESGGGLVQPGGSLRLSCAASGFTFNNYAMNWVRQAPGRGLEWVSGISGSGANTYYADSVKGRFTISRDNPKNTLSLQMNSLRAEDTALYYCAKVLSPTYYDSWSGPDAFDFWGQGTMVTVSS VL: DIQMTQSPSTLSASVGDRVTITCRASQTISPWLAWYQQKPGKAPNLLIYKASSLESGVPSRFSGSGSGTEFTLTISSLQPDDFATYYCQQYNSYSSWTFGQGTKVEIK	8
C571 (antibody, V domains shown) VH: EVQLVESGGGLIQPGGSLKLSCVVSGFTVSRNYISWVRQAPGKGLEWVSVLFAGGSTFYADSVKGRFAISRDNSNNTLFLQMNSLRVEDTAIYYCARGDGELIFDQWGQGTLVTVSS VL: QSVLTQPPSVSGAPGQRVTIVCTGTSSNIGAGYDVHWYQQLPGRAPKVLVSGNNIRPSEVPDRFSGSRSGTSASLAITSLQPEDEAQYYCQSYDSNLYAVFGGGTKLTVL	4.62
C576 (antibody, V domains shown) VH: QVQLVQSGAEVKKPGSSVKVSCKASGGTFSIYAISWVRQAPGQGLEWMGGIIPILGTANYAQKFQGRVTITADESTSTAYMELSSLRSEDTAVYYCASFHVAYGDYIPFDYWGQGTLVTVSS VL: not shown	5.29
C531 (antibody, V domains shown) VH: EVQLVESGGGLVQPGRSLRLSCVATGFTFDDFAMHWVRQAPGKGLEWVSGISWNGGIIGYVDSVKGRFTISRDNAKNSLYLQMNSLRPEDTALYYCVKGYRYYYDILTGYYNDAGAFDYWGQGTLVTVSS VL: DIQSTQSPSFLSASVGDRVAITCRASQGISSYLAWYQQKPGKAPKLLIYPASTLQSGVPSGFSGSGSGTEFTLTISSLQPEDFATYYCQQLNDYPFTFGPGTKVDIK	6.84
C577 (antibody, V domains shown) VH: QVQLVQSGAEVKKPGSSVKVSCKASGDTFSIYAFSWVRQAPGQGLQWMGAIIPLLGTTNYAQKFLGRVTITADESTSTTFMELSSLTSEDTAVYHCATFHVAYGDYIPFDSWGQGTLVIVSS VL: not shown	1.32
